One may read the koff as a measure of how fast the partners let go of each other. The kon is a measure of how fast the partners come together. As usually defined, the Kd is the equilibrium constant for the complex coming apart.

The text below walks through data of patent US20190169286A1 (Chugai, published 2019).

Assay [1] has as its target T1, soluble human FcγRIa (His-tagged) (human, UniProt P12314 16-292, limits assumed).
T1 construct: also called hFcγRIa; not shown: His tag
As to the kind of experiment: SPR (Biacore T200), antibody captured on rProtein L on a CM4 chip, soluble His-tagged FcγR injected, HBS-EP+, 20 °C. How it is done:
(§1) Soluble FcγRIa and FcγRIIIa in both human and cynomolgus monkey were produced in the form of His-tagged molecules by methods known to those of ordinary skill in the art. […] Next, soluble FcγRIa or FcγRIIIa was injected with a running buffer (used as a reference solution), and was made to interact with the antibodies captured onto the sensor chip. HBS-EP+(GE Healthcare) was used as the running buffer, and HBS-EP+ was also used to dilute the soluble FcγRIa or FcγRIIIa. […] All measurements were carried out at 20° C.
In general terms: Surface plasmon resonance follows binding to a sensor surface in real time, without labels.

For assay [2], the target named is T2, soluble cynomolgus monkey FcγRIIIa (His-tagged) (cynomolgus monkey, UniProt Q8SPW2 17-208).
T2 construct: also called cynoFcγRIIIa; not shown: His tag
Described as above. How it is done:
as §1

Assay [3] addresses T3, soluble human FcγRIIIa (His-tagged) (human, UniProt P08637 17-208).
T3 construct: also called hFcγRIIIa; not shown: His tag
Described as above. How it is done:
as §1

In assay [4] the target is T4, human IL-8 (human, UniProt P10145 23-99, limits assumed).
T4 construct: also called hIL-8; hIL8
As to the kind of experiment: SPR Biacore T200, Protein A/G capture, pH 5.8, 37C.
Method: (§2) An appropriate amount of Protein A/G (PIERCE) was immobilized onto the Sensor chip CM4 (GE Healthcare) by the amine coupling method and the antibodies of interest were captured. […] To regenerate the sensor chip, 25 mM NaOH and 10 mM glycine-HCl (pH 1.5) were used. […] The BIACORE T200 Evaluation Software (GE Healthcare) was used to calculate each parameter.

Assay [5] concerns the target T4, human IL-8. As to the kind of experiment: SPR Biacore T200, Protein A/G capture, IL-8 analyte, pH 5.8, 37C.
Method: (§3) An appropriate amount of Protein A/G (PIERCE) was immobilized onto Sensor chip CM4 (GE Healthcare) by the amine coupling method and the antibodies of interest was captured. […] To regenerate the sensor chip, 10 mM glycine-HCl at pH 1.5 was used. All measurements were carried out at 37° C. […] The BIACORE T200 Evaluation Software (GE Healthcare) was used to calculate each parameter.
In assay [6] the target is T4, human IL-8. As to the kind of experiment: SPR Biacore T200, Protein A/G capture, pH 5.8, 37C. The source holds these as a separate data set.
Method: as §2
Assay [7] addresses T4, human IL-8. As to the kind of experiment: SPR Biacore T200, Protein A/G capture, IL-8 analyte, pH 5.8, 37C. This is another data set of the same source.
Method: as §3
The target of assay [8] is T4, human IL-8. As to the kind of experiment: SPR Biacore T200, Protein A/G capture, IL-8 analyte, pH 7.4, 37C.
Method: as §3
The target in assay [9] is T4, human IL-8. The assay is described as above. The source holds these as a separate data set.
Method: as §3
Assay [10] concerns the target T4, human IL-8. The experiment in a line: SPR Biacore T200, Protein A/G capture, pH 7.4, 40C.
Method: as §2
Assay [11] has as its target T4, human IL-8. As to the kind of experiment: SPR Biacore T200, 37C; ratio between pH 7.4 and pH 5.8.
Method: as §3
Assay [12] concerns the target T4, human IL-8. The experiment in a line: SPR Biacore T200, Protein A/G capture, pH 7.4, 40C. The source holds these as a separate data set.
Method: as §2
Assay [13] has as its target T4, human IL-8. The experiment in a line: SPR IL-8 binding level per 1000 RU captured Ab, pH 7.4, 40C; 1 week 50C in PBS vs initial.

T1 sequence (P12314 16-292 limits assumed): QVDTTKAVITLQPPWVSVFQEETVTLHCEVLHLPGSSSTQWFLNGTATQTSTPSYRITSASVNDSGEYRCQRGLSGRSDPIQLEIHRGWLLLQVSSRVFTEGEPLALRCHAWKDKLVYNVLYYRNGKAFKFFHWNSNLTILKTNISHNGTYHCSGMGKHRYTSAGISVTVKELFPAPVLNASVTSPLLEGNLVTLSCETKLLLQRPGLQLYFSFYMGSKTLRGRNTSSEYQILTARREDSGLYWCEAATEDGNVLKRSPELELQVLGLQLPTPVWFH
T2 sequence (Q8SPW2 17-208 limits assumed): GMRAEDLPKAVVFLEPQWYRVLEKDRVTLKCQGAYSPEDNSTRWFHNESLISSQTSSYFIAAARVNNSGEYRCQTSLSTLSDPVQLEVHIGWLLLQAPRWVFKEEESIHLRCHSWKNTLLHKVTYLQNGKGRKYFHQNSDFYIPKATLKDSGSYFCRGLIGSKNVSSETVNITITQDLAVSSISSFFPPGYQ
T4 sequence (P10145 23-99 limits assumed): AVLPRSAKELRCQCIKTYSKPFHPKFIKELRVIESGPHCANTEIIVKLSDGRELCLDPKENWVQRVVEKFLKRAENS
T3 sequence (P08637 17-208 limits assumed): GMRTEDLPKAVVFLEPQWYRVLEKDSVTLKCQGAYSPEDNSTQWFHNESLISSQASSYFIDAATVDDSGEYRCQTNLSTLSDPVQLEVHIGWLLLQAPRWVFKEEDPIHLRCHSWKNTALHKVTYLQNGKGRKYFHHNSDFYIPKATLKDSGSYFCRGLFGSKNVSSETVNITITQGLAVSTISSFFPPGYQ

B1: H1009/L395-F1886s (H1009-F1886s / L395-k0MT) (antibody)
heavy: QVQLVESGGGLVQPGGSLRLSCAASGFTFSDYYLSWVRQAPGKGLEWVGLIRNKDNYHTPEYSASVKGRFTISRDDSKNSLYLTMSDLKTEDTAVYYCARENHRYDVELAYWGQGTLVTVSSASTKGPSVFPLAPSSKSTSGGTAALGCLVKDYFPEPVTVSWNSGALTSGVHTFPAVLQSSGLYSLSSVVTVPSSSLGTQTYICNVNHKPSNTKVDKKVEPKSCDKTHTCPPCPAPELRRGPKVFLFPPKPKDTLMISRTPEVTCVVVDVSHEDPEVKFNWYVDGVEVHNAKTKPREEQYNSTYRVVSVLTVLHQDWLNGKEYKCKVSNKALPAPIEKTISKAKGQPREPQVYTLPPSREEMTKNQVSLTCLVKGFYPSDIAVEWESNGQPENNYKTTPPVLDSDGSFFLYSKLTVDKSRWQQGNVFSCSVLHEALHAHTTRKELSLSP
light: DIQMTQSPSSLSASVGDRVTITCRASEIIYSYLAWYQQKPGKAPKLLIYKAKTHADGVPSRFSGSGSGTDFTFTISSLQPEDIATYYCKHHFGFPRTFGQGTKVEIKRTVAAPSVFIFPPSDEQLKSGTASVVCLLNNFYPREAKVQWKVDNALQSGNSQESVTEQDSKDSTYSLSSTLTLSKADYEKHKVYACEVTHQGLSSPVTKSFNRGEC
B1: the binding result in assay [1], in [2] and in assay [3] was “no binding (tested: not given)” throughout.

B2: H1009/L395-F1886m (antibody)
heavy: QVQLVESGGGLVQPGGSLRLSCAASGFTFSDYYLSWVRQAPGKGLEWVGLIRNKDNYHTPEYSASVKGRFTISRDDSKNSLYLTMSDLKTEDTAVYYCARENHRYDVELAYWGQGTLVTVSSASTKGPSVFPLAPSSKSTSGGTAALGCLVKDYFPEPVTVSWNSGALTSGVHTFPAVLQSSGLYSLSSVVTVPSSSLGTQTYICNVNHKPSNTKVDKKVEPKSCDKTHTCPPCPAPELLGGPSVFLFPPKPKDTLMISRTPEVTCVVVDVSHEDPEVKFNWYVDGVEVHNAKTKPREEQYNSTYRVVSVLTVLHQDWLNGKEYKCKVSNKALPAPIEKTISKAKGQPREPQVYTLPPSREEMTKNQVSLTCLVKGFYPSDIAVEWESNGQPENNYKTTPPVLDSDGSFFLYSKLTVDKSRWQQGNVFSCSVLHEALHAHTTRKELSLSP
light: DIQMTQSPSSLSASVGDRVTITCRASEIIYSYLAWYQQKPGKAPKLLIYKAKTHADGVPSRFSGSGSGTDFTFTISSLQPEDIATYYCKHHFGFPRTFGQGTKVEIKRTVAAPSVFIFPPSDEQLKSGTASVVCLLNNFYPREAKVQWKVDNALQSGNSQESVTEQDSKDSTYSLSSTLTLSKADYEKHKVYACEVTHQGLSSPVTKSFNRGEC
Regarding B2, the binding result in assay [1] and in assay [2] was “binds” throughout.

B3: H1009/L395-F1974m (H1009-F1974m / L395-k0MT) (antibody)
heavy: QVQLVESGGGLVQPGGSLRLSCAASGFTFSDYYLSWVRQAPGKGLEWVGLIRNKDNYHTPEYSASVKGRFTISRDDSKNSLYLTMSDLKTEDTAVYYCARENHRYDVELAYWGQGTLVTVSSASTKGPSVFPLAPSSKSTSGGTAALGCLVKDYFPEPVTVSWNSGALTSGVHTFPAVLQSSGLYSLSSVVTVPSSSLGTQTYICNVNHKPSNTKVDKKVEPKSCDKTHTCPPCPAPELRRGPSVFLFPPKPKDTLMISRTPEVTCVVVDVSHEDPEVKFNWYVDGVEVHNAKTKPREEQYNSTYRVVSVLTVLHQDWLNGKEYKCKVSNKGLPSSIEKTISKAKGQPREPQVYTLPPSREEMTKNQVSLTCLVKGFYPSDIAVEWESNGQPENNYKTTPPVLDSDGSFFLYSKLTVDKSRWQQGNVFSCSVLHEALHAHTTRKELSLSP
light: DIQMTQSPSSLSASVGDRVTITCRASEIIYSYLAWYQQKPGKAPKLLIYKAKTHADGVPSRFSGSGSGTDFTFTISSLQPEDIATYYCKHHFGFPRTFGQGTKVEIKRTVAAPSVFIFPPSDEQLKSGTASVVCLLNNFYPREAKVQWKVDNALQSGNSQESVTEQDSKDSTYSLSSTLTLSKADYEKHKVYACEVTHQGLSSPVTKSFNRGEC
notes: also called antibody H1009/L395-F1974m
Regarding B3, the binding result in [1], in assay [2] and in [3] was “no binding (tested: not given)” in each case.

B4: H89/L118 (H89-IgG1 / L118-k0MT) (antibody, V domains shown)
VH: QVQLVESGGGLVQPGGSLRLSCAASGFTFSDYYLSWVRQAPGKGLEWVGLIRNKANGYTREYSASVKGRFTISRDDSKNSLYLQMSSLKTEDTAVYYCARENHRYDVELAYWGQGTLVTVSS
VL: DIQMTQSPSSLSASVGDRVTITCRASEIIYSYLAWYQQKPGKAPKLLIYHAKTHADGVPSRFSGSGSGTDFTFTISSLQPEDIATYYCKHHFGFPRTFGQGTKVEIKR
notes: also called H0089/L0118
As for B4, the koff with human IL-8 [4] is 0.0063 s⁻¹; in the assay with human IL-8 [5], 0.0039 s⁻¹; in the assay with human IL-8 [6] it was 0.00628 s⁻¹; with human IL-8 [7] it was 0.00384 s⁻¹; with human IL-8 [8], 2.13e-05 s⁻¹; in the assay with human IL-8 [9] it was 0.000114 s⁻¹. In the assay with human IL-8 [10], this molecule showed an off-rate constant (koff) of 0.000129 s⁻¹. Further, the kon with human IL-8 [5] was 123000 M⁻¹ s⁻¹; in the assay with human IL-8 [6], 129000 M⁻¹ s⁻¹; in the assay with human IL-8 [7] it was 179000 M⁻¹ s⁻¹; with human IL-8 [8] it was 580000 M⁻¹ s⁻¹; with human IL-8 [9], 945000 M⁻¹ s⁻¹; with human IL-8 [10], 751000 M⁻¹ s⁻¹.

B5: Hr9/L16 (antibody, human IgG1, kappa, name in Kabat numbering, V domains shown)
VH: QVQLVESGGGLVQPGGSLRLSCAASGFTFSDYYLSWVRQAPGKGLEWVGLIRNKANGYTREYSASVKGRFTISRDDSKNSLYLQMSSLKTEDTAVYYCARENYRYDVELAYWGQGTLVTVSS
VL: DIQMTQSPSSLSASVGDRVTITCRASEIIYSYLAWYQQKPGKAPKLLIYNAKTHADGVPSRFSGSGSGTDFTFTISSLQPEDIATYYCQHHFGFPRTFGQGTKVEIKR
notes: WS4L-k0MT with L54H
In the assay with human IL-8 [7], B5 gave an off-rate (koff) of 0.000197 s⁻¹ and an on-rate constant (kon) of 39100 M⁻¹ s⁻¹. Besides, in the assay with human IL-8 [8], the koff was determined as 9.57e-05 s⁻¹ and the on-rate (kon) was determined as 890000 M⁻¹ s⁻¹. Also, in the assay with human IL-8 [11], the “KD Ratio (pH 5.8/pH 7.4)” value was 46.8, the “Koff Ratio (pH 5.8/pH 7.4)” value came to 2.1 and the “kon Ratio (pH 7.4/pH 5.8)” value stood at 22.8.

B6: H1040/L0442 (antibody, human IgG1, kappa, name in Kabat numbering, V domains shown)
VH: QVQLVESGGGLVQPGGSLRLSCAASGFTFSEYYLSWVRQAPGKGLEWVGLIRNKDNHHHPEYSASVKGRFTISRDDSKNSLYLTMSDLKTEDTAVYYCARENHRYDVELAYWGQGTLVTVSS
VL: DIQMTQSPSSLSASVGDRVTITCRASEIIYEYLAWYQQKPGKAPKLLIYKAKTHADGVPSRFSGSGSGTDFTFTISSLQPEDIATYYCKHHFGFPRTFGQGTKVEIKR
notes: L442 = L395 + S31E
With B6, the Kd turned out to be 140 nM with human IL-8 [4] and 0.34 nM in the assay with human IL-8 [12]. In the assay with human IL-8 [4], this molecule showed an off-rate constant (koff) of 0.21 s⁻¹. The “Ratio of IL-8 Binding Amount (Thermal Acceleration/Initial)” value in the assay with human IL-8 [13] is 0.49.

B7: H1009/L395 (H1009-IgG1m / L395-k0MT) (antibody)
heavy: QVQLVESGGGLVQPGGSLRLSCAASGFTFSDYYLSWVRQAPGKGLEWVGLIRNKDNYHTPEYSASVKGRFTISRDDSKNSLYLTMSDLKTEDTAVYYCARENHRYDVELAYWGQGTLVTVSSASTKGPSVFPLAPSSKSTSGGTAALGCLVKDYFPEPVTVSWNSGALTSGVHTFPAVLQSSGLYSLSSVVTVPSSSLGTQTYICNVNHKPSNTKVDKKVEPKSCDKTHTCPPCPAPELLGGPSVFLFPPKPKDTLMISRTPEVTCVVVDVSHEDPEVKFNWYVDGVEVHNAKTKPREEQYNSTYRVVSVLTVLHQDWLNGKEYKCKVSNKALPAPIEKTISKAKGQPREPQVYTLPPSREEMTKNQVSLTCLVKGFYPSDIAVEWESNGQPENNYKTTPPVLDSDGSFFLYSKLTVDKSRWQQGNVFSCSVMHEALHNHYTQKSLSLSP
light: DIQMTQSPSSLSASVGDRVTITCRASEIIYSYLAWYQQKPGKAPKLLIYKAKTHADGVPSRFSGSGSGTDFTFTISSLQPEDIATYYCKHHFGFPRTFGQGTKVEIKRTVAAPSVFIFPPSDEQLKSGTASVVCLLNNFYPREAKVQWKVDNALQSGNSQESVTEQDSKDSTYSLSSTLTLSKADYEKHKVYACEVTHQGLSSPVTKSFNRGEC
notes: also called H1009/L0395
On to B7, for which the koff with human IL-8 [4] turned out to be 0.01 s⁻¹. The “Ratio of IL-8 Binding Amount (Thermal Acceleration/Initial)” value with human IL-8 [13] was 0.64.
